The series concerns the molecule itself. As to the kind of experiment: Western blot of HEK lysates after detergents, 95 C and beta-mercaptoethanol; homodimer band at about 50 kDa. A general note: In western blotting, separated proteins are transferred to a membrane and probed.

These results are taken from patent US20150301068A1 (VIB VZW, published 2015).

B1: tetraspanin 6 (TSPAN6) (other)
chain: MASPSRRLQTKPVITCFKSVLLIYTFIFWITGVILLAVGIWGKVSLENYFSLLNEKATNVPFVLIATGTVIILLGTFGCFATCRASAWMLKLYAMFLTLVFLVELVAAIVGFVFRHEIKNSFKNNYEKALKQYNSTGDYRSHAVDKIQNTLHCCGVTDYRDWTDTNYYSEKGFPKSCCKLEDCTPQRDADKVNNEGCFIKVMTIIESEMGVVAGISFGVACFQLIGIFLAYCLSRAITNNQYEIV
notes: Endogenous TSPAN6 in HEK cell lysates, exosomes and human CSF, on Western blots; also called tetraspanin TM4-D; tetraspanin TM4SF
In the case of B1, the binding result is “binds”.
